Consider one molecule from patent US12358954B2, “Capsid-modified rAAV vector compositions and methods therefor” (priority 2012, dated 2025).

In the test the test system is K562 cells. The experiment in a line: AAV6 transduction of K562 cells after enzyme / inhibitor treatment. The format is cell-based, human. An excerpt: More recently, Denard et al. reported that galectin-3-binding protein in human sera agglutinates AAV6 vectors, which results in decreased transduction efficiency of these vectors. […] The identity of the putative receptor for AAV6 vectors in human CD34^+ cells remains elusive, and additional studies are warranted. […] The implication is that AAV6 uses a protein rather than a lipid on K562 cells for binding and entry into these cells. In addition, because AAV6 is known to have evolved from recombination between AAV1 and AAV2, and because AAV2 uses heparan sulfateproteoglycan (HSPG) as the primary cellular receptor, the level of HSPG expression on K562 cells surface was examined by FACS. […] The effect of inhibitors of O-linked and N-linked glycosylation was also evaluated on the transduction efficiency of AAV6 vectors in K562 cells.

B1: Proteinase K: Proteinase K (Sigma-Aldrich Co.) (protein, UniProt P06873 106-384, looked up)
Proteinase K: AAQTNAPWGLARISSTSPGTSTYYYDESAGQGSCVYVIDTGIEASHPEFEGRAQMVKTYYYSSRDGNGHGTHCAGTVGSRTYGVAKKTQLFGVKVLDDNGSGQYSTIIAGMDFVASDKNNRNCPKGVVASLSLGGGYSSSVNSAAARLQSSGVMVAVAAGNNNADARNYSPASEPSVCTVGASDRYDRRSSFSNYGSVLDIFGPGTSILSTWIGGSTRSISGTSMATPHVAGLAAYLMTLGKTTAASACRYIADTANKGDLSNIPFGTVNLLAYNNYQA
As to B1, the “effect on AAV6 vector-mediated transduction of K562 cells” value is recorded as “dramatically decrease”.
